Values belong to the molecule of their own block, whether it stands above or below them.
What was measured:
[1] = biological target: T1, cynomolgus PD-1 Fc fusion (cynomolgus monkey, UniProt B0LAJ3 25-170); test: ELISA on plate bound cynomolgus PD-1 Fc fusion
T1 construct: also called Cyno PD-1 (ELISA)

[2] = biological target: T2, human PD-1 expressed on cells (human, UniProt Q15116 25-288); test: cell-based or functional assay
[3] = biological target: T2, human PD-1 expressed on cells; test: flow cytometry on PD-1 expressing Jurkat cells; samples incubated 30 days at -80, 5, 25 or 40°C
Experimental: (§1) PD-1 expressing Jurkat cells were harvested from flasks and resuspended to 2×10⁶ cells/mL in PBS containing 1% BSA. 100 μL of cells were added to a round bottom 96 well plate containing 100 μL of titrated test antibody or isotype control. Cells were incubated with antibodies at room temperature for 25 minutes and then washed twice with PBS containing 1% BSA. The cell pellet was resuspended in 100 μL of a 1:250 diluted secondary antibody goat anti-human Fab PE. Following 25 minutes incubation at RT, cells were washed twice with PBS containing 1% BSA and resuspended in 200 μL of 1% BSA. Cells were analyzed using Becton Dickinson FACSCanto flow cytometer. Data was analyzed using BD FACSDiva software (version 8.0.1).

[4] = biological target: T2, human PD-1 expressed on cells; test: flow cytometry on activated human CD4+ T cells
Experimental: Cells were analyzed using Becton Dickinson FACSCanto flow cytometer. Data was analyzed using BD FACSDiva software (version 8.0.1).

[5] = biological target: T3, human PD-1 Fc fusion (human, UniProt Q15116 25-170); test: ELISA on plate bound human PD-1 Fc fusion
T3 construct: also called Hu PD-1 (ELISA); not shown: Fc part of the fusion
T3 sequence (Q15116 25-170 limits assumed): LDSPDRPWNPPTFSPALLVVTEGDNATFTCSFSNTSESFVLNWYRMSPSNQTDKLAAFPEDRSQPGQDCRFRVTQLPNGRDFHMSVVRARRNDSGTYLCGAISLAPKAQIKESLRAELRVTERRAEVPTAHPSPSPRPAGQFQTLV

[6] = biological target: T4, Recombinant extracellular domain of human PD-1 (residues 1-167) (human, UniProt Q15116 25-167); test: SPR, Biacore T200, antibody captured by anti-human Fc, PD-1 ECD as analyte
T4 construct: Bought from a commercial source; also called recombinant soluble PD-1 ECD; PD-1 ECD
T4 sequence (Q15116 25-167): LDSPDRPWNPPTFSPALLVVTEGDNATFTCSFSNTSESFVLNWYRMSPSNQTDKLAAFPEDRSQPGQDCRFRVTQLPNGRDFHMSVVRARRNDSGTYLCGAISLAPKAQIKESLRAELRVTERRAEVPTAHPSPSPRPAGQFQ
Description: Unreacted moieties on the biosensor surface were blocked with ethanolamine.

[7] = biological target: T2, human PD-1 expressed on cells; test: flow cytometry on PD-1 expressing Jurkat cells
[8] = biological target: T2, human PD-1 expressed on cells; test: flow cytometry on human PD-1 transfected Jurkat cells
Experimental: as §1
(§2) The antibody variants were screened for binding to human PD-1 transfected Jurkat cells and EC₅₀ values were determined (FIG. 3B).

[9] = biological target: T2, human PD-1 expressed on cells; test: flow cytometry on PD-1 expressing Jurkat cells; samples stored 30 days at the given temperature or oxidised with 1% hydrogen peroxide or 1% tert-butyl hydroperoxide
Experimental: as §1, §2

T2 sequence (Q15116 25-288 limits assumed): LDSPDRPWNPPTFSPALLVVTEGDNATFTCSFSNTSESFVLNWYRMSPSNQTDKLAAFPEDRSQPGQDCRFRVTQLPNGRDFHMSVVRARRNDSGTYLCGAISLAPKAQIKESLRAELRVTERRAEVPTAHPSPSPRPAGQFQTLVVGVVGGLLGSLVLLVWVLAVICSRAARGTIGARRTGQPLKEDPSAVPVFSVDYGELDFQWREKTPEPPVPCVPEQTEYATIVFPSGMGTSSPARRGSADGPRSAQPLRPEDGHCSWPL
T1 sequence (B0LAJ3 entry or part of it limits assumed): as the sequence (Q15116 25-170 limits assumed) above, with D2E, P10A, V19L, T35A, Q75R, T144A counted along it

- EC50 [1]: 0.07 nM
Molecule: Nivolumab (antibody)

- Jurkat NFAT EC50 [2]: 4.5 µg/mL
- EC50 [1]: 0.102 nM
- EC50 (read off the curve) [3]: ~0.01 µg/mL
- EC50 [4]: 0.18 nM
- EC50 [5]: 0.197 nM
- Kd [6]: 2.1 nM
- EC50 [7]: 0.045 nM
B1: Humanized 12A11.2b with M99L in CDR-H3 (antibody, V domains shown)
VH: EIQLVQSGAEVKKPGSSVKVSCKASGYTFTHYGMNWVRQAPGQGLEWVGWVNTYTGEPTYADDFKGRLTFTLDTSTSTAYMELSSLRSEDTAVYYCTREGEGLGFGDWGQGTTVTVSS
VL: DVVMTQSPLSLPVTPGEPASISCRSSQSIVHSHGDTYLEWYLQKPGQSPQLLIYKVSNRFSGVPDRFSGSGSGTDFTLKISRVEAEDVGVYYCFQGSHIPVTFGQGTKLEIK
notes: It was detected with anti-human Fab and captured with anti-human IgG Fc; also called Hu12A11.2b4; humanized antibody 12A11.2b M99L

- binding result [8]: binds
B2: Humanized 12A11.2b with M99V in CDR-H3 (antibody, V domains shown)
VH: EIQLVQSGAEVKKPGSSVKVSCKASGYTFTHYGMNWVRQAPGQGLEWVGWVNTYTGEPTYADDFKGRLTFTLDTSTSTAYMELSSLRSEDTAVYYCTREGEGVGFGDWGQGTTVTVSS
VL: DVVMTQSPLSLPVTPGEPASISCRSSQSIVHSHGDTYLEWYLQKPGQSPQLLIYKVSNRFSGVPDRFSGSGSGTDFTLKISRVEAEDVGVYYCFQGSHIPVTFGQGTKLEIK
notes: also called Hu12A11.2b3; M99V variant

- binding result [9]: binds
B3: Humanized 12A11.2b with mouse CDRs (antibody, V domains shown)
VH: EIQLVQSGAEVKKPGSSVKVSCKASGYTFTHYGMNWVRQAPGQGLEWVGWVNTYTGEPTYADDFKGRLTFTLDTSTSTAYMELSSLRSEDTAVYYCTREGEGMGFGDWGQGTTVTVSS
VL: DVVMTQSPLSLPVTPGEPASISCRSSQSIVHSHGDTYLEWYLQKPGQSPQLLIYKVSNRFSGVPDRFSGSGSGTDFTLKISRVEAEDVGVYYCFQGSHIPVTFGQGTKLEIK
notes: also called Hu12A11.2b1; M99 parent antibody

- binding result [8]: binds
B4: Humanized 12A11.2b with M99I in CDR-H3 (antibody, V domains shown)
VH: EIQLVQSGAEVKKPGSSVKVSCKASGYTFTHYGMNWVRQAPGQGLEWVGWVNTYTGEPTYADDFKGRLTFTLDTSTSTAYMELSSLRSEDTAVYYCTREGEGIGFGDWGQGTTVTVSS
VL: DVVMTQSPLSLPVTPGEPASISCRSSQSIVHSHGDTYLEWYLQKPGQSPQLLIYKVSNRFSGVPDRFSGSGSGTDFTLKISRVEAEDVGVYYCFQGSHIPVTFGQGTKLEIK
notes: also called Hu12A11.2b2; M99I variant

Reference: patent US20200317808A1 (AbbVie / Abbott, published 2020)
